Test results as given in article PMC9097884 (Science Immunology, 2022).

Columns and labels:
[1] = biological target: SARS-CoV-2 S1 (residues 1-682, Wuhan-Hu-1) (SARS-CoV-2 (Wuhan-Hu-1 strain), UniProt P0DTC2); experiment: ELISA; conditions: both partners purified
[2] = biological target: T1, SARS-CoV-2 S receptor-binding domain (RBD, residues 329-538, Wuhan-Hu-1) (SARS-CoV-2 (Wuhan-Hu-1 strain), UniProt P0DTC2); experiment: ELISA; conditions: both partners purified
T1 construct: also called SARS-CoV-2 S RBD domain; not shown: Strep-tag, C-terminal, kept

B1: REGN10987 (recombinant human IgG1/kappa) (antibody, V domains shown)
VH: QVQLVESGGGVVQPGRSLRLSCAASGFTFSNYAMYWVRQAPGKGLEWVAVISYDGSNKYYADSVKGRFTISRDNSKNTLYLQMNSLRTEDTAVYYCASGSDYGDYLLVYWGQGTLVTVSS
VL: QSALTQPASVSGSPGQSITISCTGTSSDVGGYNYVSWYQQHPGKAPKLMIYDVSKRPSGVSNRFSGSKSGNTASLTISGLQSEDEADYYCNSLTSISTWVFGGGTKLTVL
B1: binds [1].

B2: REGN10933 (recombinant human IgG1/kappa) (antibody, V domains shown)
VH: QVQLVESGGGLVKPGGSLRLSCAASGFTFSDYYMSWIRQAPGKGLEWVSYITYSGSTIYYADSVKGRFTISRDNAKSSLYLQMNSLRAEDTAVYYCARDRGTTMVPFDYWGQGTLVTVSS
VL: DIQMTQSPSSLSASVGDRVTITCQASQDITNYLNWYQQKPGKAPKLLIYAASNLETGVPSRFSGSGSGTDFTFTISGLQPEDIATYYCQQYDNLPLTFGGGTKVEIK
notes: source: HEK-293T, transient transfection, purified (Protein A Sepharose)
B2: binds [2]; binds [1].

B3: 87G7 human monoclonal antibody (recombinant human IgG1/kappa) (antibody, V domains shown)
VH: EVQLLESGGGLVQPGGSLRLSCVASGFTFSSYVMSWVRQAPGKGLEWVAAISGSGGNTYYADSVKGRFTISRDNSKNTLYLQMNSLRAEDTAVYYCAKEGTYYYGSGSFWGQGTLVTVSS
VL: EIVLTQSPATLSLSPGERATLSCRASQSFHNYLAWYQQKPGRAPRLLIFDASNRATGIPARFSGSGSGTDFTLTISSLEPEDFAVYYCQQRFNWPLTFGGGTKVEIK
notes: also called 87G7 IgG; 87G7 mAb
B3: binds [2]; binds [1].
